Results: patent US20080113383A1 (FIBRO GEN, published 2008)
Where no end group is shown, it is not given here.

B1: DTDLDLEMLEpYIPMDDDFQ (peptide)
peptide: DTDLDLEMLEPYIPMDDDFQ
modifications: not fully specified; printed as DTDLDLEMLEpYIPMDDDFQ
B2: DTDLDLEATApYIPADDDFQ (peptide)
peptide: DTDLDLEATAPYIPADDDFQ
B3: DTDLDVEAVApYIPADDDFQ (peptide)
peptide: DTDLDVEAVAPYIPADDDFQ
modifications: not fully specified; printed as DTDLDVEAVApYIPADDDFQ
B4: DTDLDTEAYApYIPADDDFQ (peptide)
peptide: DTDLDTEAYAPYIPADDDFQ
modifications: not fully specified; printed as DTDLDTEAYApYIPADDDFQ
B5: DTDLDLEAQApYIPADDDFQ (peptide)
peptide: DTDLDLEAQAPYIPADDDFQ
B6: DTDLDLEAEApYIPADDDFQ (peptide)
peptide: DTDLDLEAEAPYIPADDDFQ
B7: DTDLDAEASApYIPADDDFQ (peptide)
peptide: DTDLDAEASAPYIPADDDFQ
B8: DTDLDLEMLRpYIPMDDDFQ (peptide)
peptide: DTDLDLEMLRPYIPMDDDFQ
modifications: not fully specified; printed as DTDLDLEMLRpYIPMDDDFQ
B9: DTDLDLEARApYIPADDDFQ (peptide)
peptide: DTDLDLEARAPYIPADDDFQ
B10: DTDLDIEAIApYIPADDDFQ (peptide)
peptide: DTDLDIEAIAPYIPADDDFQ
B11: DTDLDMEALApYIPADDDFQ (peptide)
peptide: DTDLDMEALAPYIPADDDFQ
modifications: not fully specified; printed as DTDLDMEALApYIPADDDFQ
B12: DTDLDLEAFApYIPADDDFQ (peptide)
peptide: DTDLDLEAFAPYIPADDDFQ
B13: DTDLDIEANApYIPADDDFQ (peptide)
peptide: DTDLDIEANAPYIPADDDFQ
B14: DTDLDTEAIApYIPADDDFQ (peptide)
peptide: DTDLDTEAIAPYIPADDDFQ
modifications: not fully specified; printed as DTDLDTEAIApYIPADDDFQ
B15: DTDLDLEMLIpYIPMDDDFQ (peptide)
peptide: DTDLDLEMLIPYIPMDDDFQ
modifications: not fully specified; printed as DTDLDLEMLIpYIPMDDDFQ
B16: DTDLDYEALApYIPADDDFQ (peptide)
peptide: DTDLDYEALAPYIPADDDFQ
modifications: not fully specified; printed as DTDLDYEALApYIPADDDFQ
B17: DTDLDLEMLLpYIPMDDDFQ (peptide)
peptide: DTDLDLEMLLPYIPMDDDFQ
modifications: not fully specified; printed as DTDLDLEMLLpYIPMDDDFQ
B18: DTDLDLEMLFpYIPMDDDFQ (peptide)
peptide: DTDLDLEMLFPYIPMDDDFQ
modifications: not fully specified; printed as DTDLDLEMLFpYIPMDDDFQ
B19: DTDLDAEAIApYIPADDDFQ (peptide)
peptide: DTDLDAEAIAPYIPADDDFQ
B20: DTDLDAEAAApYIPADDDFQ (peptide)
peptide: DTDLDAEAAAPYIPADDDFQ
B21: DTDLDFEALApYIPADDDFQ (peptide)
peptide: DTDLDFEALAPYIPADDDFQ
B22: DTDLDNEALApYIPADDDFQ (peptide)
peptide: DTDLDNEALAPYIPADDDFQ
modifications: not fully specified; printed as DTDLDNEALApYIPADDDFQ
B23: DTDLDLEMLMpYIPMDDDFQ (peptide)
peptide: DTDLDLEMLMPYIPMDDDFQ
modifications: not fully specified; printed as DTDLDLEMLMpYIPMDDDFQ
B24: DTDLDLEAGApYIPADDDFQ (peptide)
peptide: DTDLDLEAGAPYIPADDDFQ
B25: DTDLDLEMLKpYIPMDDDFQ (peptide)
peptide: DTDLDLEMLKPYIPMDDDFQ
modifications: not fully specified; printed as DTDLDLEMLKpYIPMDDDFQ
B26: DTDLDLEASApYIPADDDFQ (peptide)
peptide: DTDLDLEASAPYIPADDDFQ
B27: DTDLDTEAVApYIPADDDFQ (peptide)
peptide: DTDLDTEAVAPYIPADDDFQ
modifications: not fully specified; printed as DTDLDTEAVApYIPADDDFQ
B28: DTDLDVEALApYIPADDDFQ (peptide)
peptide: DTDLDVEALAPYIPADDDFQ
modifications: not fully specified; printed as DTDLDVEALApYIPADDDFQ
B29: DTDLDTEATApYIPADDDFQ (peptide)
peptide: DTDLDTEATAPYIPADDDFQ
modifications: not fully specified; printed as DTDLDTEATApYIPADDDFQ
B30: DTDLDLEAIApYIPADDDFQ (peptide)
peptide: DTDLDLEAIAPYIPADDDFQ
B31: DTDLDLEALApYIPADDDFQ (peptide)
peptide: DTDLDLEALAPYIPADDDFQ
B32: DTDLDIEAVApYIPADDDFQ (peptide)
peptide: DTDLDIEAVAPYIPADDDFQ
B33: DTDLDHEALApYIPADDDFQ (peptide)
peptide: DTDLDHEALAPYIPADDDFQ
B34: DTDLDTEAFApYIPADDDFQ (peptide)
peptide: DTDLDTEAFAPYIPADDDFQ
modifications: not fully specified; printed as DTDLDTEAFApYIPADDDFQ
B35: DTDLDLEMLHpYIPMDDDFQ (peptide)
peptide: DTDLDLEMLHPYIPMDDDFQ
modifications: not fully specified; printed as DTDLDLEMLHpYIPMDDDFQ
B36: DTDLDAEATApYIPADDDFQ (peptide)
peptide: DTDLDAEATAPYIPADDDFQ
B37: DTDLDREALApYIPADDDFQ (peptide)
peptide: DTDLDREALAPYIPADDDFQ
modifications: not fully specified; printed as DTDLDREALApYIPADDDFQ
B38: DTDLDLEMLCpYIPMDDDFQ (peptide)
peptide: DTDLDLEMLCPYIPMDDDFQ
modifications: not fully specified; printed as DTDLDLEMLCpYIPMDDDFQ
B39: DTDLDVEATApYIPADDDFQ (peptide)
peptide: DTDLDVEATAPYIPADDDFQ
modifications: not fully specified; printed as DTDLDVEATApYIPADDDFQ
B40: DTDLDLEMLQpYIPMDDDFQ (peptide)
peptide: DTDLDLEMLQPYIPMDDDFQ
modifications: not fully specified; printed as DTDLDLEMLQpYIPMDDDFQ
B41: DTDLDLEAYApYIPADDDFQ (peptide)
peptide: DTDLDLEAYAPYIPADDDFQ
modifications: not fully specified; printed as DTDLDLEAYApYIPADDDFQ

Biological target: EGLN2
Assay: cell-based or functional assay

Activity (%)* [%]	Binder
3.35	B1
54.9	B2
16.6	B3
25.6	B4
19.1	B5
13.2	B6
8.82	B7
14.3	B8
78.6	B9
64.3	B10
79.1	B11
73.9	B12
34.4	B13
25.3	B14
17.8	B15
108	B16
-0.42	B17
0.63	B18
24	B19
8.63	B20
58.6	B21

Activity (%)* [%]	Binder
21.4	B22
27.8	B23
9.84	B24
57.7	B25
31.6	B26
19	B27
29	B28
24.8	B29
89	B30
102	B31
23.8	B32
21.5	B33
28.5	B34
3.47	B35
19.4	B36
15.7	B37
0.4	B38
13.6	B39
38.1	B40
67.8	B41

Biological target: EGLN1
Assay: cell-based or functional assay

Activity (%)* [%]	Binder
2.27	B1
68.2	B2
22.8	B3
24.1	B4
23.4	B5
9.97	B6
10.5	B7
19.8	B8
79	B9
72.5	B10
86.4	B11
82.2	B12
33.2	B13
23.7	B14
15.6	B15
94.2	B16
2.36	B17
4.16	B18
31.3	B19
12.6	B20
65.2	B21

Activity (%)* [%]	Binder
27.1	B22
26.4	B23
11.3	B24
68.7	B25
29.6	B26
16.6	B27
31.5	B28
21.9	B29
88	B30
102	B31
23.9	B32
23.4	B33
22.2	B34
2.41	B35
20.8	B36
19.9	B37
1.94	B38
20.4	B39
45.1	B40
77.2	B41

Biological target: EGLN3
Assay: cell-based or functional assay

Activity (%)* [%]	Binder
52.8	B1
63.2	B2
49	B3
36	B4
39.4	B5
16.9	B6
4.11	B7
77.6	B8
68.6	B9
72.8	B10
128	B11
76.4	B12
30.4	B13
19	B14
101	B15
136	B16
46.2	B17
59.3	B18
25.7	B19
7.18	B20
142	B21

Activity (%)* [%]	Binder
57.6	B22
58.9	B23
12.2	B24
74.5	B25
25.1	B26
26.8	B27
115	B28
16.5	B29
104	B30
119	B31
61.3	B32
55.8	B33
24.1	B34
68.2	B35
18.5	B36
49.8	B37
63.1	B38
24	B39
59.9	B40
90.1	B41
